Experimental findings from patent publication US20200407445A1 (ITEOS THERAPEUTICS, published 2020) are described below.

Test [1] concerns the target T1, human TIGIT expressed on cells (human, UniProt Q495A1 22-244).
T1 sequence (looked up): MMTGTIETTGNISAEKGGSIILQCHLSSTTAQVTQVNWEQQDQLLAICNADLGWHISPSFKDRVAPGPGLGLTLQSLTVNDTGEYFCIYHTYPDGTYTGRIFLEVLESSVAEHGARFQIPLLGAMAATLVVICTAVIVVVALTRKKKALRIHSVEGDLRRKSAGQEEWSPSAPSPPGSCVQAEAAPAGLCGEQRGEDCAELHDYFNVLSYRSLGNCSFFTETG
Briefly: cell-based or functional assay.

For test [2], the target named is T1, human TIGIT expressed on cells. Briefly: flow cytometry, 100 nM Ab, Jurkat-hTIGIT vs untransfected. How it is done: (§1) Antibodies were incubated with the cells for 20 min at 4° C. in FACS buffer. […] Geometric mean fluorecence intensity was analysed using LSR BD Fortessa. Cell binding was recorded as the median florescence intensity of PE on the transfected line compared to the un-transfected line for each antibody (Table 3).
For orientation: Flow cytometry measures light scatter and fluorescence of single cells or particles in a stream.

For test [3], the target named is T2, mouse TIGIT expressed on cells (mouse, UniProt P86176 29-249).
T2 construct: whole, on cells; on Jurkat cells engineered to express mouse TIGIT; also called mTIGIT; Jurkat-mTIGIT
T2 sequence (looked up): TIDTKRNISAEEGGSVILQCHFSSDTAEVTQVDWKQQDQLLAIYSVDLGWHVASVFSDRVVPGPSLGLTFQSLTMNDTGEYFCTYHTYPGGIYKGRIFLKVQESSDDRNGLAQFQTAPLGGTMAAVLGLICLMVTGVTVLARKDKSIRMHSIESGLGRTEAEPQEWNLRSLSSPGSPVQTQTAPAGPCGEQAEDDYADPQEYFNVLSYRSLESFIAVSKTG
Kind of test: flow cytometry, 100 nM Ab, Jurkat-mTIGIT vs untransfected. The method, then: as §1

Test [4] deals with T3, Human TIGIT-Fc (human, UniProt Q495A1 22-141).
T3 construct: bought (Creative Biomart); also called TIGIT-Fc antigen; TIGIT-Fc fusion antigen; not shown: Fc part
T3 sequence (looked up): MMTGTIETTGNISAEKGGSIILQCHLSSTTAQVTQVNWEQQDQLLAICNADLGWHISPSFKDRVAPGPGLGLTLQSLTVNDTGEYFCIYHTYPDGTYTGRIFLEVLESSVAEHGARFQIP
Kind of test: ForteBio BLI, IgG KD, avid. How it is done:
Briefly, ForteBio affinity measurements were performed by loading IgGs on-line onto AHQ sensors. Sensors were equilibrated off-line in assay buffer for 30 min and then monitored on-line for 60 seconds for baseline establishment. Sensors with loaded IgGs were exposed to 100 nM antigen (human TIGIT-Fc, human TIGIT-His or cyno TIGIT-Fc) for 5 minutes, afterwards they were transferred to assay buffer for 5 min for off-rate measurement. Kinetics were analyzed using the 1:1 binding model.
Background: In BLI a coated tip is dipped into the sample, and binding shifts an interference pattern.

Test [5] addresses T1, human TIGIT expressed on cells. Briefly: cell-based or functional assay. The source holds these as a separate data set.
For test [6], the target named is T4, Cyno TIGIT-Fc (cynomolgus, UniProt A0A7N9I9V4 89-209).
T4 construct: not shown: Fc part
Kind of test: ForteBio BLI, Fab KD, monovalent.

Test [7] concerns the target T5, Human TIGIT-His (human, UniProt Q495A1 22-141, biotinylated in the ForteBio Fab assay).
T5 construct: bought (Creative Biomart); also called Biotinylated Human TIGIT HIS; TIGIT-His monomer; not shown: His tag
T5 sequence (looked up): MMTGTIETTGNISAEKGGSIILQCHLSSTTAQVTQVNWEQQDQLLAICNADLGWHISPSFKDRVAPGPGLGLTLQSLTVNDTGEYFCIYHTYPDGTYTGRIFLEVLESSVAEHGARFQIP
Kind of test: ForteBio BLI, Fab KD, monovalent.

T4 sequence (A0A7N9I9V4 entry or part of it): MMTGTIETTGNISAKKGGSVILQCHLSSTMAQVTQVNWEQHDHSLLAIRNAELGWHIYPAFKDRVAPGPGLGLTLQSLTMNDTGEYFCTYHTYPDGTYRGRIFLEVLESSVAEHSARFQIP

B1: anti-TIGIT antibody clone 26518 (IgG) (antibody, V domains shown)
VH: EVQLVESGGGLVQPGGSLRLSCAASGFTFSSYGMSWVRQAPGKGLEWVANIKQDGSEKYYVDSVKGRFTISRDNAKNSLYLQMNSLRAEDTAVYYCARVSYYYDSSKLRWAEYFQHWGQGTLVTVSS
VL: EIVLTQSPATLSLSPGERATLSCRASQSVSSYLAWYQQKPGQAPRLLIYDASKRATGIPARFSGSGSGTDFTLTISSLEPEDFAVYYCQQVHNFPLTFGGGTKVEIK
notes: parent clone
As to B1, the “Induction over Isotype control (fold change), luciferase, Jurkat-hTIGIT + CHO-TCR-CD155, 133 nM” value in test [1] amounted to 2.89 fold. For the same molecule, the “FON (Fold Over Negative)” value turned out to be 154 fold in test [2] and 233 fold in test [3]. In test [4], binding was put at a Kd of 0.63 nM.

B2: anti-TIGIT antibody clone 32919 (IgG) (antibody, V domains shown)
VH: QLQLQESGPGLVKPSETLSLTCTVSGGSISSGSYYLAWIRQPPGKGLEWIGSIFRSGSTYYNPSLESRVTISVDTSKNQFSLKLSSVTAADTAVYYCAIEGANFKDFGYVAFDIWGQGTTVTVSS
VL: EIVLTQSPATLSLSPGERATLSCRASQSVSSYLAWYQQKPGQAPRLLIYDASNRATGIPARFSGSGSGTDFTLTISSLEPEDFAVYYCQQENPRPRTFGGGTKVEIK
notes: human IgG; light chain optimised from 31288
B2: the “FON (Fold Over Negative)” value in test [2] was determined as 680 fold. Moreover, in test [5], the “EC50 of Jurkat-hTIGIT cell activation (luciferase), FIG. 12B” value is 2.7 nM.

B3: Fab of anti-TIGIT clone 26518 (Fab, V domains shown)
VH: EVQLVESGGGLVQPGGSLRLSCAASGFTFSSYGMSWVRQAPGKGLEWVANIKQDGSEKYYVDSVKGRFTISRDNAKNSLYLQMNSLRAEDTAVYYCARVSYYYDSSKLRWAEYFQHWGQGTLVTVSS
VL: EIVLTQSPATLSLSPGERATLSCRASQSVSSYLAWYQQKPGQAPRLLIYDASKRATGIPARFSGSGSGTDFTLTISSLEPEDFAVYYCQQVHNFPLTFGGGTKVEIK
Consider B3, for which the Kd – broadly, a measure of binding affinity in units of concentration – in test [6] stood at 4.47 nM; in test [7], 1.24 nM.

B4: anti-TIGIT antibody clone 29478 (IgG) (antibody, V domains shown)
VH: EVQLVESGGGVVQPGRSLRLSCAASGFTFESYGMVWVRQAPGKGLEWVASILYDGSNRYYADSVKGRFTVSRDNSKNTLYLQMNSLRAEDTAVYYCARVSYYYDSVELRWAEYFQHWGQGTLVTVSS
VL: EIVLTQSPATLSLSPGERATLSCRASQSVSSYLAWYQQKPGQAPRLLIYDASKRATGIPARFSGSGSGTDFTLTISSLEPEDFAVYYCQQVHNFPLTFGGGTKVEIK
In the case of B4, the “Induction over Isotype control (fold change), luciferase, Jurkat-hTIGIT + CHO-TCR-CD155, 133 nM” value in test [1] worked out at 3.57 fold. Also, the entries for the “FON (Fold Over Negative)” value in test [2] and in test [3] were 182 fold and 500 fold, respectively. This molecule returned a Kd in test [4] of 0.527 nM.

B5: anti-TIGIT antibody clone 26432 (IgG) (antibody, V domains shown)
VH: QVQLVQSGAEVKKPGSSVKVSCKASGGTFSSYAISWVRQAPGQGLEWMGGIIPIFGTANYAQKFQGRVTITADESTSTAYMELSSLRSEDTAVYYCAREAQSYRVPFDIWGQGTMVTVSS
VL: EIVMTQSPATLSVSPGERATLSCRASQSVSSNLAWYQQKPGQAPRLLIYGASTRATGIPARFSGSGSGTEFTLTISSLQSEDFAVYYCQQYAIWPPFTFGGGTKVEIK
notes: also called parental clone 26432
Consider B5, for which, in test [4], the Kd was found to be 4.62 nM.

B6: Fab of anti-TIGIT clone 31288 (Fab, V domains shown)
VH: QLQLQESGPGLVKPSETLSLTCTVSGGSISSGSYYLAWIRQPPGKGLEWIGSIFRSGSTYYNPSLESRVTISVDTSKNQFSLKLSSVTAADTAVYYCAIEGANFKDFGYVAFDIWGQGTTVTVSS
VL: EIVMTQSPATLSVSPGERATLSCRASQSVSSNLAWYQQKPGQAPRLLIYGASTRATGIPARFSGSGSGTEFTLTISSLQSEDFAVYYCQQSPPWPRTFGGGTKVEIK
notes: Fab
Turning to B6, the values for the Kd in test [6] and in test [7] were 25.1 nM and 2.09 nM, respectively.

B7: Fab of anti-TIGIT clone 26486 (Fab, V domains shown)
VH: QVQLQESGPGLVKPSETLSLTCAVSGYSISSGYYWAWIRQPPGKGLEWIGSIYHSGSTYYNPSLKSRVTISVDTSKNQFSLKLSSVTAADTAVYYCAIEGANYYDFGYVAFDIWGQGTMVTVSS
VL: EIVMTQSPATLSVSPGERATLSCRASQSVSSNLAWYQQKPGQAPRLLIYGASTRATGIPARFSGSGSGTEFTLTISSLQSEDFAVYYCQQSPPWPRTFGGGTKVEIK
For the molecule B7, the binding result in test [6] is reported as “no binding”. Besides, the affinity in test [7], expressed as Kd, was 21.9 nM.

B8: anti-TIGIT antibody clone 26486 (IgG) (antibody, V domains shown)
VH: QVQLQESGPGLVKPSETLSLTCAVSGYSISSGYYWAWIRQPPGKGLEWIGSIYHSGSTYYNPSLKSRVTISVDTSKNQFSLKLSSVTAADTAVYYCAIEGANYYDFGYVAFDIWGQGTMVTVSS
VL: EIVMTQSPATLSVSPGERATLSCRASQSVSSNLAWYQQKPGQAPRLLIYGASTRATGIPARFSGSGSGTEFTLTISSLQSEDFAVYYCQQSPPWPRTFGGGTKVEIK
notes: parent clone
Consider B8, for which the “Induction over Isotype control (fold change), luciferase, Jurkat-hTIGIT + CHO-TCR-CD155, 133 nM” value in test [1] turned out to be 1.9 fold. In addition, the “FON (Fold Over Negative)” value in test [2] is 143 fold; in test [3], 199 fold. The Kd in test [4] is 0.589 nM.

B9: Fab of anti-TIGIT clone 32919 (Fab, V domains shown)
VH: QLQLQESGPGLVKPSETLSLTCTVSGGSISSGSYYLAWIRQPPGKGLEWIGSIFRSGSTYYNPSLESRVTISVDTSKNQFSLKLSSVTAADTAVYYCAIEGANFKDFGYVAFDIWGQGTTVTVSS
VL: EIVLTQSPATLSLSPGERATLSCRASQSVSSYLAWYQQKPGQAPRLLIYDASNRATGIPARFSGSGSGTDFTLTISSLEPEDFAVYYCQQENPRPRTFGGGTKVEIK
notes: Fab
B9: the results for the Kd in test [6] and in test [7] were 6.57 nM and 1.42 nM, respectively.

B10: anti-TIGIT antibody clone 32931 (IgG) (antibody, V domains shown)
VH: QLQLQESGPGLVKPSETLSLTCTVSGGSISSGSYYLAWIRQPPGKGLEWIGSIFRSGSTYYNPSLESRVTISVDTSKNQFSLKLSSVTAADTAVYYCAIEGANFKDFGYVAFDIWGQGTTVTVSS
VL: EIVMTQSPATLSVSPGERATLSCRASKSVSSNLAWYQQKPGQAPRLLIYFASTRATGIPARFSGSGSGTEFTLTISSLQSEDFAVYYCQQTSPWPRTFGGGTKVEIK
notes: as for B2
In the case of B10, the “FON (Fold Over Negative)” value in test [2] is 741 fold. In test [5], the “EC50 of Jurkat-hTIGIT cell activation (luciferase), FIG. 12B” value came to 3.2 nM.

B11: Fab of anti-TIGIT clone 32931 (Fab, V domains shown)
VH: QLQLQESGPGLVKPSETLSLTCTVSGGSISSGSYYLAWIRQPPGKGLEWIGSIFRSGSTYYNPSLESRVTISVDTSKNQFSLKLSSVTAADTAVYYCAIEGANFKDFGYVAFDIWGQGTTVTVSS
VL: EIVMTQSPATLSVSPGERATLSCRASKSVSSNLAWYQQKPGQAPRLLIYFASTRATGIPARFSGSGSGTEFTLTISSLQSEDFAVYYCQQTSPWPRTFGGGTKVEIK
notes: Fab
In the case of B11, the figures for the Kd in test [6] and in test [7] were 1.97 nM and 1.18 nM, respectively.

B12: anti-TIGIT antibody clone 26521 (IgG) (antibody, V domains shown)
VH: QVQLVQSGAEVKKPGSSVKVSCKASGGTFSSYAISWVRQAPGQGLEWMGGIIPIFGTANYAQKFQGRVTITADESTSTAYMELSSLRSEDTAVYYCARLHLGSSAYYGMDVWGQGTTVTVSS
VL: DIQMTQSPSSLSASVGDRVTITCRASQSISSYLNWYQQKPGKAPKLLIYAASSLQSGVPSRFSGSGSGTDFTLTISSLQPEDFATYYCQQRYVFPPTFGGGTKVEIK
notes: parent clone
Regarding B12, the “Induction over Isotype control (fold change), luciferase, Jurkat-hTIGIT + CHO-TCR-CD155, 133 nM” value in test [1] was 2.66 fold. Further, the “FON (Fold Over Negative)” value in test [2] worked out at 146 fold; in test [3] it was 218 fold. Also, binding in test [4] was characterised by a dissociation constant (Kd) of 0.541 nM.

B13: Fab of anti-TIGIT clone 26521 (Fab, V domains shown)
VH: QVQLVQSGAEVKKPGSSVKVSCKASGGTFSSYAISWVRQAPGQGLEWMGGIIPIFGTANYAQKFQGRVTITADESTSTAYMELSSLRSEDTAVYYCARLHLGSSAYYGMDVWGQGTTVTVSS
VL: DIQMTQSPSSLSASVGDRVTITCRASQSISSYLNWYQQKPGKAPKLLIYAASSLQSGVPSRFSGSGSGTDFTLTISSLQPEDFATYYCQQRYVFPPTFGGGTKVEIK
Consider B13, for which the results for the Kd in test [6] and in test [7] were 149 nM and 9.87 nM, respectively.
